# Test results published in article PMC10246912.
# Biological target: human angiotensin-converting enzyme 2 receptor (hACE2) (human) (UniProt Q9BYF1)
# Experiment: SPR
substance,measurement,value
S-2P (prefusion-stabilised SARS-CoV-2 spike with K986P and V987P) (domain or fragment),Kd,0.2 nM
